Source: patent US20240092898A1
One block for each binder: values may come before it.

How the values were obtained:
CD33 (human) = CD33 (human) (UniProt P20138); test: SPR
CD7 on cells (human) [1] = biological target: CD7 on cells (human) (UniProt P09564); test: flow cytometry on cells; cell line and unit not stated
CD7 on cells (human) [2] = biological target: CD7 on cells (human) (UniProt P09564); test: flow cytometry on cells; ratio to 7-PP-1 WT

Sequence of CD7 on cells (human) (P09564 26-240): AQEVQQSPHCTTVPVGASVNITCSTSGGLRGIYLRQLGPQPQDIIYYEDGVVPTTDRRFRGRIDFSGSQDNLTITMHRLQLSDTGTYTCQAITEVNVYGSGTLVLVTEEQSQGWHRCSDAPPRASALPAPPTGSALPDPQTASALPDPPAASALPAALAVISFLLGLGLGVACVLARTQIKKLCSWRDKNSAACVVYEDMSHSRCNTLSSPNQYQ
Sequence of CD33 (human) (P20138 18-259 limits assumed): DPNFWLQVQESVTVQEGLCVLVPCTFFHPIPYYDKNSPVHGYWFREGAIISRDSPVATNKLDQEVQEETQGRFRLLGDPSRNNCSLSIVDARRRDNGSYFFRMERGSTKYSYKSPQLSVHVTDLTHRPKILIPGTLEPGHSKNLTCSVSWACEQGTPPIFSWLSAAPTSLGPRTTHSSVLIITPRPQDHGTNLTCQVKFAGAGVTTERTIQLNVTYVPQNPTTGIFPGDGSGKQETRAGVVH

Kd (CD33 (human)): 1.36 nM
B1: CD33-PP-1-WT (Fab, from another filing, V domains shown)
VH: EVQLVQSGAEVKKPGSSVKVSCKASGYTITDSNIHWVRQAPGQSLEWIGYIYPYNGGTDYNQKFKNRATLTVDNPTNTAYMELSSLRSEDTAFYYCVNGNPWLAYWGQGTLVTVSS
VL: DIQLTQSPSTLSASVGDRVTIICRASESLDNYGIRFLTWFQQKPGKAPKLLMYAASNQGSGVPSRFSGSGSGTEFTLTISSLQPDDFATYYCQQTKEVPWSFGQGTKLEIK

FACS binding (CD7 on cells (human) [1]): 267
FACS fold reduction compared to PP WT (CD7 on cells (human) [2]): 502 fold
B2: CD7-PP-7 (Fab, V domains shown)
VH: QVQLQESGAELVKPGASVKLSCKASGYTFTSYWMHWVKQRPGQGLEWIGKINPSNGGTNYNEKFKSKATLTVDKSSSTAYMQLSSLTSEDSAVYYCARGGVYYDLYYAALDYWGQGTTVTVSS
VL: DIELTQSPATLSVTPGDSVSLSCRASQSISNNLHWYQQKSHESPRLLIKSASQSISGIPSRFSGSGSGTDFTLSINSVETEDFGMYFCQQSNSWPYTFGGGTKLEIKR
